According to patent US20220402980A1, “CHROMOGRANIN A-DERIVED PEPTIDES AND USES THEREOF” (OSPEDALE SAN RAFFAELE S.R.L., priority 2019, published 2022):

Target: wild-type human integrin α5β1 (octyl β-D-glucopyranoside preparation) (human), P08648
Experiment: competitive binding assay on α5β1-coated plates, isoDGR/STV-HRP probe

Sequence of wild-type human integrin α5β1 (octyl β-D-glucopyranoside preparation) (human), P08648 (P08648 42-1049, chain 1 of 2): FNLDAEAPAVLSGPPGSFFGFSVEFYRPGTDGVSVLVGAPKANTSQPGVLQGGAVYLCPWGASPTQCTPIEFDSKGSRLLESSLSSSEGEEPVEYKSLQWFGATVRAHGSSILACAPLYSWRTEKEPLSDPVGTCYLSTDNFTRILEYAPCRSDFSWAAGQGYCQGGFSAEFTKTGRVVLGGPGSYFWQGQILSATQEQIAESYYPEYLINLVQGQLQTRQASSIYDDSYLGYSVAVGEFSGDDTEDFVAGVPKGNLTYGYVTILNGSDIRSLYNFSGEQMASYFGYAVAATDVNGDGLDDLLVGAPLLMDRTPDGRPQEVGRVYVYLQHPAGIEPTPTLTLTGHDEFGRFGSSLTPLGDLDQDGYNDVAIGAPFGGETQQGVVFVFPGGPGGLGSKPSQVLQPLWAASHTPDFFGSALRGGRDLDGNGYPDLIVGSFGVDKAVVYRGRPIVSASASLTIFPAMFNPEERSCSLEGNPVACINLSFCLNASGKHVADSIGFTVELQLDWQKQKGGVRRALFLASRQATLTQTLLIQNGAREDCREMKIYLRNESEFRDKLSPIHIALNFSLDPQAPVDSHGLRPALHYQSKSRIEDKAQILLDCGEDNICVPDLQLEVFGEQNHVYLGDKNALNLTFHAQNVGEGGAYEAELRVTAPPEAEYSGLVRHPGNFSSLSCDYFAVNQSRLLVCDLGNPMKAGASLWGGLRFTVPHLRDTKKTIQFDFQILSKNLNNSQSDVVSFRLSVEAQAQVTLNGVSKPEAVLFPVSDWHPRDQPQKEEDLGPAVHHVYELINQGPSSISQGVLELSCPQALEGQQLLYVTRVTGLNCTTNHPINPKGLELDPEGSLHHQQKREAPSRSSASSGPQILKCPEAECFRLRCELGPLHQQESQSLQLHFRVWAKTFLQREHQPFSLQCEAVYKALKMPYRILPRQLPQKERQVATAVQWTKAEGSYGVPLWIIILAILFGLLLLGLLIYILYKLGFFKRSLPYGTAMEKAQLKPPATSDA
Sequence of wild-type human integrin α5β1 (octyl β-D-glucopyranoside preparation) (human), P08648 (P05556 21-798, chain 2 of 2, further chain): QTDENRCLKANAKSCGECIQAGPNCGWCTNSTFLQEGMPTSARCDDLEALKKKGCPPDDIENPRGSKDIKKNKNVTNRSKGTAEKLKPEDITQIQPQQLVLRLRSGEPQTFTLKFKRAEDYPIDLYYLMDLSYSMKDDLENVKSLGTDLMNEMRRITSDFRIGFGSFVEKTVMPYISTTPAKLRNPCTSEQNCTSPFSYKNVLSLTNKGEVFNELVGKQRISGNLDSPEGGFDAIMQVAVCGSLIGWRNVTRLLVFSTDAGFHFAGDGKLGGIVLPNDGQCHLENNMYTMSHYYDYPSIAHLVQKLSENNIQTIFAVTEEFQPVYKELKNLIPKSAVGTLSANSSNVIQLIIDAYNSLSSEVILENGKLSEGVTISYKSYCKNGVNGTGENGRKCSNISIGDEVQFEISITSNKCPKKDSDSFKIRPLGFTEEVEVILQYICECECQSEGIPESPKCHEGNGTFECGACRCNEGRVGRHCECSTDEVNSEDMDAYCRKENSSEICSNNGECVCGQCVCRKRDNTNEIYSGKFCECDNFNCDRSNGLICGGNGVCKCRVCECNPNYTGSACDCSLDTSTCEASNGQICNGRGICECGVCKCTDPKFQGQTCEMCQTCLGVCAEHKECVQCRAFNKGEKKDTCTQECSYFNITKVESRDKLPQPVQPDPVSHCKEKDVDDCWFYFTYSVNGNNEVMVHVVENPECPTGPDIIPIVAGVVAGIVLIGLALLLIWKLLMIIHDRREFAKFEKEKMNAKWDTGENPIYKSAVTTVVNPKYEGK

B1: foot and mouth disease virus-derived peptide A20FMDV2 (peptide)
peptide: NAVPNLRGDLQVLAQKVART
modifications: not checked
  Ki: 2320 nM
